Measured values: the supplement of paper PMC6755084

B1: minF1; the commonest letter at each place (parent)
chain: GAGACCGCAACTGAAAAGTTGTTATCAGAAATGGATGGGTTGAATTTCTGCACGTAGAAGCAAAAGGC

Variants of: B1
Test: fraction ligated after 30 min (ligated reads / total reads); higher = more ligase activity
Conditions: with F1*subA RNA substrate (template-directed ligation), 42 °C
In short: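 Fraction ligated for every variant was calculated as the share of total reads that came from ligated RNA. Minimized ligase ribozyme variants were made from oligo-pool templates by PCR amplification, T7 transcription and gel purification. After gel separation of ligated and unligated RNAs, reverse transcription with barcoded primers and MiSeq sequencing followed. Only core bases at quality ≥30 passed filtering.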

Row | Variant | fraction ligated
1 | GAGACCGCAACTGAAAAGTTGTTATCAGAAATAGATGGGTTGAATTTCTGCACGTAGAAGCAAAAGGC | 0.817
2 | GAGACCGCAACTGAAAAGTTGTTATCAGAAAAGGATGGGTTTAATTTCTGCACGTAGAAGCAAAAGGC | 0.00743
3 | GAGACCGCAACTGAAAAGTTGTTATCAGAAAAGGATGGGTTAAATTTCTGCACGTAGAAGCAAAAGGC | 0.00239
4 | GAGACCGCAACTGAAAAGTTGTTATCAGAAAAGGATGGGTTCAATTTCTGCACGTAGAAGCAAAAGGC | 0.00255
5 | GAGACCGCAACTGAAAAGTTGTTATCAGAAATACATGGGTTGAATTTCTGCACGTAGAAGCAAAAGGC | 0.00342
6 | GAGACCGCAACTGAAAAGTTGTTATCAGAAATAAATGGGTTGAATTTCTGCACGTAGAAGCAAAAGGC | 0.334
7 | GAGACCGCAACTGAAAAGTTGTTATCAGAAACGGATGGGTTTAATTTCTGCACGTAGAAGCAAAAGGC | 0.0036
8 | GAGACCGCAACTGAAAAGTTGTTATCAGAAACGGATGGGTTCAATTTCTGCACGTAGAAGCAAAAGGC | 0.00351
9 | GAGACCGCAACTGAAAAGTTGTTATCAGAAACGGATGGGTTAAATTTCTGCACGTAGAAGCAAAAGGC | 0.00418
10 | GAGACCGCAACTGAAAAGTTGTTATCAGAAAGGGCTGGGTTGAATTTCTGCACGTAGAAGCAAAAGGC | 0.00432
11 | GAGACCGCAACTGAAAAGTTGTTATCAGAAAGGGTTGGGTTGAATTTCTGCACGTAGAAGCAAAAGGC | 0.00401
12 | GAGACCGCAACTGAAAAGTTGTTATCAGAAAGGGGTGGGTTGAATTTCTGCACGTAGAAGCAAAAGGC | 0.00546
13 | GAGACCGCAACTGAAAAGTTGTTATCAGAAACGGATGGGTTGGATTTCTGCACGTAGAAGCAAAAGGC | 0.0128
14 | GAGACCGCAACTGAAAAGTTGTTATCAGAAACGGATGGGTTGCATTTCTGCACGTAGAAGCAAAAGGC | 0.00725
15 | GAGACCGCAACTGAAAAGTTGTTATCAGAAACGGATGGGTTGTATTTCTGCACGTAGAAGCAAAAGGC | 0.00881
16 | GAGACCGCAACTGAAAAGTTGTTATCAGAAACGGGTGGGTTGAATTTCTGCACGTAGAAGCAAAAGGC | 0.00362
17 | GAGACCGCAACTGAAAAGTTGTTATCAGAAACGGCTGGGTTGAATTTCTGCACGTAGAAGCAAAAGGC | 0.00582
18 | GAGACCGCAACTGAAAAGTTGTTATCAGAAACGGTTGGGTTGAATTTCTGCACGTAGAAGCAAAAGGC | 0.0031
19 | GAGACCGCAACTGAAAAGTTGTTATCAGAAACGGATGGGTTGAATTTCTGCACGTAGAAGCAAAAGGC | 0.0302
20 | GAGACCGCAACTGAAAAGTTGTTATCAGAAAGGGATGGGTTGAATTTCTGCACGTAGAAGCAAAAGGC | 0.02

Row | Variant | fraction ligated
21 | GAGACCGCAACTGAAAAGTTGTTATCAGAAAAGGACGGGTTGAATTTCTGCACGTAGAAGCAAAAGGC | 0.00204
22 | GAGACCGCAACTGAAAAGTTGTTATCAGAAAAGGAGGGGTTGAATTTCTGCACGTAGAAGCAAAAGGC | 0.00433
23 | GAGACCGCAACTGAAAAGTTGTTATCAGAAAAGGAAGGGTTGAATTTCTGCACGTAGAAGCAAAAGGC | 0.00173
24 | GAGACCGCAACTGAAAAGTTGTTATCAGAAAAGGATAGGTTGAATTTCTGCACGTAGAAGCAAAAGGC | 0.000603
25 | GAGACCGCAACTGAAAAGTTGTTATCAGAAAAGGATCGGTTGAATTTCTGCACGTAGAAGCAAAAGGC | 0.00322
26 | GAGACCGCAACTGAAAAGTTGTTATCAGAAAAGGATTGGTTGAATTTCTGCACGTAGAAGCAAAAGGC | 0.00279
27 | GAGACCGCAACTGAAAAGTTGTTATCAGAAAGGGATGGGTTGGATTTCTGCACGTAGAAGCAAAAGGC | 0.196
28 | GAGACCGCAACTGAAAAGTTGTTATCAGAAAGGGATGGGTTGCATTTCTGCACGTAGAAGCAAAAGGC | 0.00832
29 | GAGACCGCAACTGAAAAGTTGTTATCAGAAAGGGATGGGTTGTATTTCTGCACGTAGAAGCAAAAGGC | 0.0529
30 | GAGACCGCAACTGAAAAGTTGTTATCAGAAAGGGATTGGTTGAATTTCTGCACGTAGAAGCAAAAGGC | 0.00459
31 | GAGACCGCAACTGAAAAGTTGTTATCAGAAAGGGATAGGTTGAATTTCTGCACGTAGAAGCAAAAGGC | 0.00205
32 | GAGACCGCAACTGAAAAGTTGTTATCAGAAAGGGATCGGTTGAATTTCTGCACGTAGAAGCAAAAGGC | 0.0035
33 | GAGACCGCAACTGAAAAGTTGTTATCAGAAAAGGATGGGTTGATTTTCTGCACGTAGAAGCAAAAGGC | 0.163
34 | GAGACCGCAACTGAAAAGTTGTTATCAGAAAAGGATGGGTTGAGTTTCTGCACGTAGAAGCAAAAGGC | 0.0595
35 | GAGACCGCAACTGAAAAGTTGTTATCAGAAAGGGAGGGGTTGAATTTCTGCACGTAGAAGCAAAAGGC | 0.00871
36 | GAGACCGCAACTGAAAAGTTGTTATCAGAAAGGGAAGGGTTGAATTTCTGCACGTAGAAGCAAAAGGC | 0.00414
37 | GAGACCGCAACTGAAAAGTTGTTATCAGAAAGGGACGGGTTGAATTTCTGCACGTAGAAGCAAAAGGC | 0.00404
38 | GAGACCGCAACTGAAAAGTTGTTATCAGAAAGGTATGGGTTGAATTTCTGCACGTAGAAGCAAAAGGC | 0.00509
39 | GAGACCGCAACTGAAAAGTTGTTATCAGAAAGGCATGGGTTGAATTTCTGCACGTAGAAGCAAAAGGC | 0.00552
40 | GAGACCGCAACTGAAAAGTTGTTATCAGAAAGGAATGGGTTGAATTTCTGCACGTAGAAGCAAAAGGC | 0.0029
